Measurements reported in paper PMC11472053, “Structural basis of DNA recognition by BEN domain proteins reveals a role for oligomerization in unmethylated DNA selection by BANP” (Nucleic Acids Research, 2024).

Assays:
Assay in all cases: ITC; ITC: 20 mM Tris pH 7.5, 200 mM NaCl, 2 mM beta-mercaptoethanol, 20 C; EMSA: 20 mM Tris pH 7.0, 200 mM NaCl, 2 mM DTT, 4 C, 1.2% agarose in TAE
BANP BEN K278A = target: T1, BANP BEN K278A (human, UniProt Q8N9N5 205-325, K278A); conditions: protein: recombinant; tags: His-SUMO or His-MBP, cleaved; chain copies: 2; blunt, self-complementary
T1 sequence: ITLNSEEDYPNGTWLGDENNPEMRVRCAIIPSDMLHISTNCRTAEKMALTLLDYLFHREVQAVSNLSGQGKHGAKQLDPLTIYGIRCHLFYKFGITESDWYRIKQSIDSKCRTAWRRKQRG

BANP BEN S313A = target: T2, BANP BEN S313A (human, UniProt Q8N9N5 205-325, S313A); conditions: protein: recombinant; tags: His-SUMO or His-MBP, cleaved; chain copies: 2; blunt, self-complementary
T2 sequence: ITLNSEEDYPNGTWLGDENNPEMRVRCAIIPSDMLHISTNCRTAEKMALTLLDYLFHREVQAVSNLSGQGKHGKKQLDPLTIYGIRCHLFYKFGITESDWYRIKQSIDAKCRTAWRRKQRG

GST-BANP BEN = target: T3, GST-BANP BEN (human, UniProt Q8N9N5 205-325); conditions: protein: recombinant; tags: N-terminal GST fusion; chain copies: 2; blunt, self-complementary
T3 sequence: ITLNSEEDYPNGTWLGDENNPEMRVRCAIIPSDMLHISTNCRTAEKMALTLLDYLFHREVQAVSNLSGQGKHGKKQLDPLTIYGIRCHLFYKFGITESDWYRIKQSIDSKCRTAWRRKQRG

BANP CC-BEN (ΔDBD) = target: T4, BANP CC-BEN (ΔDBD) (human, UniProt Q8N9N5 1-360); conditions: protein: recombinant; tags: His-SUMO or His-MBP, cleaved; blunt, self-complementary
T4 sequence: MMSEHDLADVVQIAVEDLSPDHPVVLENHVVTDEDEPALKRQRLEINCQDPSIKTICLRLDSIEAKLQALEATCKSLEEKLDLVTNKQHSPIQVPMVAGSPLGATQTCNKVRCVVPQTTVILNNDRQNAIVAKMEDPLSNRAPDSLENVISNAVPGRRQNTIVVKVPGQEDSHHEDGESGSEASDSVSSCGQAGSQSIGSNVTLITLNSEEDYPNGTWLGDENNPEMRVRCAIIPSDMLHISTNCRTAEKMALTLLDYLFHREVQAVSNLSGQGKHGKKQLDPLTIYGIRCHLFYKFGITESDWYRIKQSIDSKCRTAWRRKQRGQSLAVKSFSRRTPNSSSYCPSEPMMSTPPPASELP

BANP BEN K314A = target: T5, BANP BEN K314A (human, UniProt Q8N9N5 205-325, K314A); conditions: protein: recombinant; tags: His-SUMO or His-MBP, cleaved; chain copies: 2; blunt, self-complementary
T5 sequence: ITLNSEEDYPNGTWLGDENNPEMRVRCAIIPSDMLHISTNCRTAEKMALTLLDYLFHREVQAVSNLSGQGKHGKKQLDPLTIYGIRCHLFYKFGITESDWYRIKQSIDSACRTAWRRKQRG

B1: 12-CGCG (dsDNA)
DNA 1: ATCTCGCGAGAT
DNA 2: ATCTCGCGAGAT
BANP BEN K278A
  Kd: 35.6 ± 4.1 µM
BANP BEN S313A
  Kd: 7.9 ± 1.1 µM
GST-BANP BEN
  Kd: 2.3 ± 0.4 µM
BANP CC-BEN (ΔDBD)
  Kd: 2.9 ± 0.7 µM
BANP BEN K314A
  Kd: 25.2 ± 3.8 µM
